This assay deals with T1, major tail protein gpV of bacteriophage lambda, in free tails (bacteriophage lambda), P03733.
T1 chain: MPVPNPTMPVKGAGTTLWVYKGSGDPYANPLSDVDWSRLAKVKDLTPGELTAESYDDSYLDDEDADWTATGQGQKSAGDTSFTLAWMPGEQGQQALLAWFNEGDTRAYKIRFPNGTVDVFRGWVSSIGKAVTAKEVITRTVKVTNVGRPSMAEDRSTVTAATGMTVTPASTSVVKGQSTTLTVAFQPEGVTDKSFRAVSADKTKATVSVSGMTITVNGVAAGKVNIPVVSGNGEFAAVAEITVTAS
Kind of assay: cryo-EM structure. The settings on record: remark: other sources report otherwise.

By stoichiometry N is commonly meant a count of units in the complex or per binding partner.

B1: major tail protein gpV of bacteriophage lambda, in free tails, P03733 1-246 (natural protein)
chain: MPVPNPTMPVKGAGTTLWVYKGSGDPYANPLSDVDWSRLAKVKDLTPGELTAESYDDSYLDDEDADWTATGQGQKSAGDTSFTLAWMPGEQGQQALLAWFNEGDTRAYKIRFPNGTVDVFRGWVSSIGKAVTAKEVITRTVKVTNVGRPSMAEDRSTVTAATGMTVTPASTSVVKGQSTTLTVAFQPEGVTDKSFRAVSADKTKATVSVSGMTITVNGVAAGKVNIPVVSGNGEFAAVAEITVTAS
The molecule B1 registered a stoichiometry N of 6.

(Values after publication PMC7575002.)
